For orientation: EC50 means the concentration needed to bring the measured effect to its halfway point. By Kd is commonly meant the free concentration of one partner at which half of the binding sites on the other are occupied at equilibrium, for simple one-to-one binding. The low end stands for a tighter complex, the high end for a looser complex. A word on the koff: it is the rate constant with which the complex falls apart. What is called kon is a measure of how fast the partners come together.

Sequences and labels used below:
T1: human Nectin-4 extracellular antigen hNectin-4-His (human, UniProt Q96NY8 32-349)
T1 construct: C-terminal 8xHis tag included
T1 sequence: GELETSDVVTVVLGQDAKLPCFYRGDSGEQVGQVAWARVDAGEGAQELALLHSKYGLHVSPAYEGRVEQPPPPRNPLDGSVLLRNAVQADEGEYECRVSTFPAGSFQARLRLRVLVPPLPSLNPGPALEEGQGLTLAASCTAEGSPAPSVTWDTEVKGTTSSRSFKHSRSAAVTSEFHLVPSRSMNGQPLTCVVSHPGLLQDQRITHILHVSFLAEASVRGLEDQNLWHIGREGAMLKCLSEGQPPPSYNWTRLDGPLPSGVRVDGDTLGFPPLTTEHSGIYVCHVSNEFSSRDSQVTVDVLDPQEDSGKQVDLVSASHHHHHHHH

T2: hNectin-1 (ACRO, PV1-H5223) (human, UniProt Q15223 31-334)
T2 construct: bought; construct not described
T2 sequence (looked up): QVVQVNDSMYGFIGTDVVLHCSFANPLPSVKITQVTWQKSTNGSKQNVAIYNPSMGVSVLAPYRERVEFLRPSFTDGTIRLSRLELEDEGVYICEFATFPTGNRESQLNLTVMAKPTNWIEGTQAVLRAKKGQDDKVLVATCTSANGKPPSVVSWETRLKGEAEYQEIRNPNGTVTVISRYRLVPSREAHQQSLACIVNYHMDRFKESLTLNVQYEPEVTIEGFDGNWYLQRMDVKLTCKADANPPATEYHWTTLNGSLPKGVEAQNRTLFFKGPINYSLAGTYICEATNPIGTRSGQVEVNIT

T3: hNectin-2 (ACRO, PV2-H52E2) (human, UniProt Q92692 32-360)
T3 construct: bought; construct not described
T3 sequence (looked up): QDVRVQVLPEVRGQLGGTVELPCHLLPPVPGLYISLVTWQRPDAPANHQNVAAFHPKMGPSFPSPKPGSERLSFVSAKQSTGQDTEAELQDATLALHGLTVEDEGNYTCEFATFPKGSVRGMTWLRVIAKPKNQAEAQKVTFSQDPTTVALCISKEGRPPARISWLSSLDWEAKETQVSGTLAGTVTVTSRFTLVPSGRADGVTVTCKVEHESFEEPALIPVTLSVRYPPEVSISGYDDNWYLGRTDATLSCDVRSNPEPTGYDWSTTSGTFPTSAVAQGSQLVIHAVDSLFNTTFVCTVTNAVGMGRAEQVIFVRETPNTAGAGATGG

T4: mouse mNectin-4 protein (ACRO, NE4-M52H3) (mouse, UniProt Q8R007 31-347)
T4 construct: bought; construct not described; also called mouse Nectin-4
T4 sequence (looked up): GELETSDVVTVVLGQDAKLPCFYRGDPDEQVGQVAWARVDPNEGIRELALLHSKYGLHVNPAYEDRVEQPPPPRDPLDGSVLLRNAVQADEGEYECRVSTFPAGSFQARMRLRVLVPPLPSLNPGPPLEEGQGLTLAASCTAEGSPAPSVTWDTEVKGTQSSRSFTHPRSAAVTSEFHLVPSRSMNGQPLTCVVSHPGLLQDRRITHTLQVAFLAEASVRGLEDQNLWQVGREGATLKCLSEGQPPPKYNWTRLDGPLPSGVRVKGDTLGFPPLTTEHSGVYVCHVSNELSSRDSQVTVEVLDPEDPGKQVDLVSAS

T5: human Nectin-4, full length on cells (human, UniProt Q96NY8 32-510)
T5 construct: whole, on cells; T-47D cells positive for Nectin-4 expression; also called Nectin-4 on T-47D cells; CHO-Nectin-4
T5 sequence (looked up): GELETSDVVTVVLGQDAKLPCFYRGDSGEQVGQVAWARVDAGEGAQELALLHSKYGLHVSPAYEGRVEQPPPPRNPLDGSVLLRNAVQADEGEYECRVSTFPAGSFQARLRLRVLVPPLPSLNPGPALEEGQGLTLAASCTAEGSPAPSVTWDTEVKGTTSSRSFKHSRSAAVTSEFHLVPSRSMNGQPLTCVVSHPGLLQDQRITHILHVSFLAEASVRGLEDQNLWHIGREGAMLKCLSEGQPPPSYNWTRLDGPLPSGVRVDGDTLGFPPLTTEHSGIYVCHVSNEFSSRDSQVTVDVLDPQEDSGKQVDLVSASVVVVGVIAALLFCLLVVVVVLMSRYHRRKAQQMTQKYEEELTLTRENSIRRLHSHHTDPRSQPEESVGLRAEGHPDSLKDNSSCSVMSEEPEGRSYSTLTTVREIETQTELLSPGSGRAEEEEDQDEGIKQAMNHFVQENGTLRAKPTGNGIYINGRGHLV

B1: antibody 1G8 (antibody, human IgG1, kappa, V domains shown)
VH: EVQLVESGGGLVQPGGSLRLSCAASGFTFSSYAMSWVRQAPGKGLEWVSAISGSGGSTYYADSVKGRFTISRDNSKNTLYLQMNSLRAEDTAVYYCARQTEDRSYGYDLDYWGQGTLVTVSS
VL: DIQMTQSPSSLSASVGDRVTITCRASQGISSYLAWYQQKPGKAPKLLIYAASSLQSGVPSRFSGSGSGTDFTLTISSLQPEDFATYYCQQHYTTPPTFGQGTKVEIKR
B2: antibody 10F4 (antibody, human IgG1, kappa, V domains shown)
VH: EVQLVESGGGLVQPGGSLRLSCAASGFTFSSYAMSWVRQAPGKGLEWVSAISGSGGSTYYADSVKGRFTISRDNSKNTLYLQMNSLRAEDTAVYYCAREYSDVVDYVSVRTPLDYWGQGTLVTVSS
VL: B1 VL
B3: antibody 1F3 (antibody, human IgG1, kappa, V domains shown)
VH: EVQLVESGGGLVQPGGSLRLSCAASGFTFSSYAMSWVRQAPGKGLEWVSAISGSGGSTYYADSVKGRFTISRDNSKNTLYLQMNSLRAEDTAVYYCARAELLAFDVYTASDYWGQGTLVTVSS
VL: B1 VL

For one assay, the target named is T1, human Nectin-4 extracellular antigen …. Description: ELISA, coated antigen. The source says: (§1) The binding activity of the antibodies was detected by ELISA.
(§2) In this assay, the binding of different antibodies to human Nectin-4 homologous proteins hNectin-1 (ACRO, PV1-H5223), hNectin-2 (ACRO, PV2-H52E2), hNectin-3 (ACRO, PV3-H52E4), and hNectin-4-His was detected by ELISA to determine the specificity of the antibodies. For the methodology and procedures, see Example 4. Antigens of interest ([…]) were immobilized; after blocking, serially diluted antibodies (2-fold serially diluted from […]) were added, and HRP-labeled anti-human-Kappa secondary antibody was added for chromogenic reaction.
(ELISA stands for enzyme-linked immunosorbent assay.)
In the case of B1, the EC50 is 0.041 µg/mL.
Still for that read-out and setting: for B2 the value was 0.045 µg/mL.
Still for that read-out and setting: for B3 the value was 0.04 µg/mL.

Another assay has as its target T2, hNectin-1 (ACRO, PV1-H5223). The experiment in a line: ELISA, coated antigen.
Text: as §1, §2
As for B1, the binding result is reported as “no binding (tested: 2-fold serially diluted from 2 g/mL)”.
On the same count and under the same terms, for B2 the value was “no binding (tested: 2-fold serially diluted from 2 g/mL)”; for B3, “no binding (tested: 2-fold serially diluted from 2 g/mL)”.

In another assay the target is T3, hNectin-2 (ACRO, PV2-H52E2). The experiment in a line: ELISA, coated antigen.
Text: as §1, §2
As for B1, the binding result was “no binding (tested: 2-fold serially diluted from 2 g/mL)”.
The same measure, in the same setting: for B2 the value was “no binding (tested: 2-fold serially diluted from 2 g/mL)”; for B3, “no binding (tested: 2-fold serially diluted from 2 g/mL)”.

Another assay deals with T4, mouse mNectin-4 protein (ACRO, …). Description: ELISA, coated antigen.
As to B1, a half-maximal response (EC50) required 0.037 µg/mL.
Same read-out and setting: to B2 belongs 0.041 µg/mL; to B3, 0.034 µg/mL.

A further assay addresses T1, human Nectin-4 extracellular antigen …. Description: ELISA, coated hNectin-4-His.
Text: as §1
B1 displayed an EC50 of 0.068 µg/mL.
B2 showed an EC50 of 0.038 µg/mL. Against the preceding molecule, the EC50 is about 1.8-fold lower.
Same read-out and setting: to B3 belongs 0.041 µg/mL.

Another assay shares this target. The experiment in a line: SPR, antibody on Protein A chip, 1:1 fit. The text has this: In this study, the affinity of the antibodies for the human Nectin-4 extracellular antigen was detected by surface plasmon resonance (SPR) technique (BIAcore: GE Healthcare, T200).
A general note: In SPR one partner is held on a chip, and binding of the other changes the refractive index at the surface.
Take B1: the Kd was found to be 4.97 nM, the koff came out at 0.003 s⁻¹ and the kon came to 605000 M⁻¹ s⁻¹.
In turn, B2 came in with a dissociation constant Kd of 3.23 nM, a koff of 0.00121 s⁻¹ and a kon of 375000 M⁻¹ s⁻¹.
The matching figures for B3: 2.49 nM, 0.00195 s⁻¹ and 785000 M⁻¹ s⁻¹.

For the next assay, the target named is T5, human Nectin-4, full length on cells. Description: flow cytometry, T-47D cells, antibody bound on ice, 0 h at 37 C. The method, then: In this assay, the relative amount of antibodies remaining on the cell surface after co-incubation at 37° C. for a certain period of time was detected by FACS to reflect the endocytosis efficiency. The procedures are briefly described as follows: T-47D cells (human ductal breast cancer cells, derived from the Cell Bank of Chinese Academy of Sciences, Cat.No. TCHu 87); the antibodies of interest were adjusted to 10 µg/mL and co-incubated with the cells on ice for 1 h; the cells were washed 3 times with pre-cooled PBS, and then placed at 37° C. and incubated for 0 h, 2 h and 4 h; 0.2% N₃Na was added to stop the endocytosis reaction; the cells were washed with PBS thrice, followed by the addition of the PE-labeled anti-human Fc secondary antibody (Invitrogen 12-4998-82); the cells were incubated at 4° C. for 30 min; the red fluorescence signal was detected on a flow cytometer.
In general terms: A flow cytometer gives signals particle by particle.
Regarding B1, the “MFI (mean fluorescence intensity) 0 h” value came out at 105000 MFI.
On to B2, for which the “MFI (mean fluorescence intensity) 0 h” value came out at 104000 MFI.
Same read-out and setting: to B3 belongs 121000 MFI.

The values are drawn from patent US20260144882A1 (BIO THERA SOLUTIONS, published 2026).
